According to the supplement of paper PMC7877785:
± gives the uncertainty stated by the source.

Experiment: self-splicing fitness, log relative to wild type (ln ratio); higher = more splicing; Tetrahymena group I intron in knt gene, E. coli kanamycin selection, DiMSum; sequences stand for … in CUCUCU…GGAGGGAAAAGUUAUCAGGCAUGCACCUGGUAGCUAGUCUUUAAACCAAUAGAUUGCAUCGGUUUAAAAGGCAAGACCGUCAAAUUGCGGGAAAGGGGUCAACAGCCGUUCAGUACCAAGUCUCAGGGGAAACUUUGAGAUGGCCUUGCAAAGGGUAUGGUAAUAAGCUGACGGACAUGGUCCUAACCACGCAGCCAAGUCCUAAGUCAACAGAUCUUCUGUUGAUAUGGAUGCAGUUCACAGACUAAAUGUCGGUCGGGGAAGAUGUAUUCUUCUCAUAAGAUAUAGUCGGACCUCUCCUUAAUGGGAGCUAGCGGAUGAAGUGAUGCAACACUGGAGCCGCUGGGAACUAAUUUGUAUGCGAAAGUAUAUUGAUUAGUUUUGGAGUACUCGUGGUCG
Outline: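 Six replicate transformations of E. coli BL21(DE3) with a pET-22b(+) library were grown overnight at 37°C or 30°C. The library randomised all eight P1ex-region intron nucleotides, the intron lying in the knt kanamycin-resistance gene, and plates were LB agar with or without 25 μg/mL kanamycin plus 100 μg/mL carbenicillin, 50 μM IPTG and 0.2% rhamnose. Pooled colonies were amplicon-sequenced on an Illumina HiSeq 2500, and fitness is the DiMSum error-weighted combination of wild-type-normalised replicate fold changes, kanamycin versus none.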

Sequence	self-splicing fitness (ln) (30 °C)	self-splicing fitness (ln) (37 °C)
ACUUAGCAAUAUUACGUCAC	-3.8 ± 0.22	-1.91 ± 0.2
AUUAAGCAAUAUUACGGAAA	-2.98 ± 0.29	-1.77 ± 0.26
UAUCAGCAAUAUUACGCUCA	-0.0488 ± 0.092	0.0773 ± 0.11
CCGAAGCAAUAUUACGCUAA	-3.2 ± 0.34	-2.7 ± 0.43
ACCAAGCAAUAUUACGAUCG	-1.43 ± 0.067	-0.395 ± 0.093
AACAAGCAAUAUUACGGCUG	-0.419 ± 0.059	-0.225 ± 0.086
CUUUAGCAAUAUUACGUGUC	-2.98 ± 0.21	-1.55 ± 0.17
CAUGAGCAAUAUUACGUUGC	-2.57 ± 0.091	-3.34 ± 0.2
UGUCAGCAAUAUUACGUCUU	-0.331 ± 0.071	-0.0647 ± 0.09
CGGAAGCAAUAUUACGGGUC	-3.78 ± 0.19	-2.59 ± 0.21
CCGUAGCAAUAUUACGUCCG	0.211 ± 0.094	0.319 ± 0.11
AAGCAGCAAUAUUACGACUU	-0.223 ± 0.074	-0.323 ± 0.086
AAGUAGCAAUAUUACGCUUU	-3.18 ± 0.24	-3.19 ± 0.47
ACUAAGCAAUAUUACGUCGG	-1.99 ± 0.068	-1.04 ± 0.087
UGAGAGCAAUAUUACGCAGA	-3.1 ± 0.34	–
GCGUAGCAAUAUUACGGGUU	-2.12 ± 0.12	-1.32 ± 0.15
UAUUAGCAAUAUUACGUACU	-0.305 ± 0.13	-0.224 ± 0.16
CCCCAGCAAUAUUACGGGGA	-3.15 ± 0.14	-3 ± 0.15
UCAAAGCAAUAUUACGACGA	-0.51 ± 0.074	0.278 ± 0.095
CGUGAGCAAUAUUACGGGCC	-1.9 ± 0.32	–

Sequence	self-splicing fitness (ln) (30 °C)	self-splicing fitness (ln) (37 °C)
GACCAGCAAUAUUACGAUCU	-0.841 ± 0.091	-0.153 ± 0.1
GUGAAGCAAUAUUACGCCGU	-1.23 ± 0.13	-0.0879 ± 0.21
UCCCAGCAAUAUUACGUUGG	-3.37 ± 0.12	-1.5 ± 0.13
UCAUAGCAAUAUUACGUCGC	-2.62 ± 0.3	-2.78 ± 0.34
GGCAAGCAAUAUUACGUCAC	-3.31 ± 0.22	-0.36 ± 0.17
AGUGAGCAAUAUUACGGUAG	-3.02 ± 0.4	–
GAAAAGCAAUAUUACGUAGC	-2.66 ± 0.15	-1.51 ± 0.15
AAGCAGCAAUAUUACGAGGA	-2.82 ± 0.22	-2.16 ± 0.18
AUACAGCAAUAUUACGCAGU	-2.88 ± 0.23	-2.74 ± 0.22
GGAGAGCAAUAUUACGAAAU	–	-2.48 ± 0.48
CGCUAGCAAUAUUACGCACU	-1.27 ± 0.089	-0.65 ± 0.11
AGUCAGCAAUAUUACGCCUU	-0.221 ± 0.11	0.301 ± 0.13
GAAUAGCAAUAUUACGUUAA	-2.56 ± 0.17	-1.9 ± 0.15
CCUCAGCAAUAUUACGAUAG	-0.572 ± 0.067	-1.24 ± 0.1
CUAUAGCAAUAUUACGCGCA	-2.97 ± 0.46	-1.65 ± 0.47
GGCUAGCAAUAUUACGUUCG	-0.933 ± 0.097	-0.427 ± 0.12
UAUUAGCAAUAUUACGAUCA	-0.168 ± 0.11	-0.249 ± 0.14
UUGUAGCAAUAUUACGAUUA	-0.945 ± 0.11	-0.211 ± 0.1
UAGUAGCAAUAUUACGUGUC	–	-2.22 ± 0.34
